According to patent CN115028713A (JIANGSU DONGKANG BIOMEDICAL TECH CO LTD, dated 2022):

Molecular target: 重组新冠N蛋白 N-HIS6X (recombinant SARS-CoV-2 N protein with His6 tag) (SARS-CoV-2, UniProt P0DTC9 1-419)

B1: 单克隆抗体OP2 (anti-SARS-CoV-2 N protein monoclonal antibody OP2) (antibody, V domains shown)
VH: DVQLVESGGGLVQPGGSRKLSCAASGSTFSNFGMHWVRQAPEKGLEWVAYISSASSIIYYADTVKGRFTISRDNPKNTLFLQMTSLRSEDTAMYYCARSAMDYWGQGTSVTVSS
VL: DIVLTQSPASLAVSLGQRATISCKASQSVNYSGDSYMNWFQQKPGQPPKLLIYAASNLESGIPARFSGSGSGTDFTLNIHPVEEEDAATYYCQQSEEQPYTFGGGTKLEIK
notes: also called 抗N蛋白的抗体
EC50: 0.0113 µg/mL
